Experimental data taken from patent US20240026343A1, “METHOD FOR SCREENING DIMERIZED CYCLIC PEPTIDE” (AJINOMOTO CO., INC., priority 2021, published 2024).

B1: EMP-Jun-cys-N11-SecM-GS3: EMP-leucine zipper fusion for ribosome display, SEQ ID NO: 87 (protein)
chain: MAETGGLYACHMGPMTWVCQPLRGAAPAAPAPAAGGRIARLEEKVKTLKAQNSELASTANMLREQVAQLKQKVMNGCGGKDHLIHNHHKHEHAHAEHLFSTPVWISQAQGIRAGGSGSGS
modifications: EMP-Jun-cys-N11-SecM-GS3; DISULFID 10..19 Disulfide bridge between Cys-10 and Cys-19
B2: aMD4dY-Jun-cys-N11-SecM-GS3: c-Met binding cyclic peptide-leucine zipper fusion for ribosome display, SEQ ID NO: 71 (protein)
chain: MAETCRQFNRRTHEVWNLDCGAAPAAPAPAAGGRIARLEEKVKTLKAQNSELASTANMLREQVAQLKQKVMNGCGGKDHLIHNHHKHEHAHAEHLFSTPVWISQAQGIRAGGSGSGS
modifications: aMD4dY-Jun-cys-N11-SecM-GS3; DISULFID 5..20 Disulfide bridge between Cys-5 and Cys-20

What was measured:
[1] = target: T1, Recombinant Human Erythropoietin R Fc Chimera Protein (Homo sapiens, UniProt P19235); assay: Ribosome display enrichment on immobilized EPO receptor (Example 5); assay type: binding; conditions: starting DNA mix 1:50:50 (EMP:aMD4dY:TPO fusions); one round; FIGS. 17, 18
T1 construct: purchased R&D systems 963-ER-50
T1 sequence (P19235 with tags, fused parts or gaps limits assumed): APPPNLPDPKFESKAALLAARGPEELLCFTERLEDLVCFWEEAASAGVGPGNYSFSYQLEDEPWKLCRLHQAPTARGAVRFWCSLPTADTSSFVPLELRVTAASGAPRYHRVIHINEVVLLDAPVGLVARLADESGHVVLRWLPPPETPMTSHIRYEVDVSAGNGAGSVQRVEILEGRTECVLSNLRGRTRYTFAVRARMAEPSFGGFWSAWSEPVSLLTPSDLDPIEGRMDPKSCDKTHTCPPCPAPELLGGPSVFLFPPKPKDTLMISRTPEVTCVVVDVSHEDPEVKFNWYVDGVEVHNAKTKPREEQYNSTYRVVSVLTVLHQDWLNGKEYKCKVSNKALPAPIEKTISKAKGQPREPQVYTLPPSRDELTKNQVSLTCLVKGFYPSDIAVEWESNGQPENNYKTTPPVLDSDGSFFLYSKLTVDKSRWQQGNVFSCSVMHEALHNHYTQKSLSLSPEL
Experimental: The DNA sequence of EMP-Jun-cys-N11-SecM-GS3 was prepared by PCR. Two types of DNA sequences, aMD4dY-Jun-cys-N11-SecM-GS3 and TPO-Jun-cys-N11-SecM-GS3, prepared in Example 4 were used. A DNA mix was prepared by mixing DNAs, EMP-Jun-cys-N11-SecM-GS3, aMD4dY-Jun-cys-N11-SecM-GS3, and TPO-Jun-cys-N11-SecM-GS3, at a ratio of 1:50:50.
(§1) DNA transcription was carried out using T7 RNA polymerase. T7 RNA polymerase (Takara Bio, 2540A) and rNTPs (Promega, E6000) as well were used for transcription. 11 μL of ultrapure water, 2 μL of 10×T7 RNA polymerase buffer, 2 μL of 50 mM DTT, 2 μL of 25 mM rNTPs, 1 μL of T7 RNA polymerase, and 1 μL of DNA mix were mixed and reacted in a constant temperature bath at 37° C. for 6 hours. A 50 mM EDTA solution was then added. It was purified with RNA Clean & Concentrator 5 (ZYMO […], R1015) and made into a 2 μM mRNA mix.
PURExpress ΔRF1,2,3 kit was used for translation expression of the prepared library. 2 μL of solution A, 1.5 μL of solution B, 1 μL of mRNA mix, and 0.5 μL of ultrapure water were mixed and cultured in a 37° C. constant temperature bath for 2 hours. […]
Three types of DNAs, EMP-Jun-cys-N11-SecM-GS3, aMD4dY-Jun-cys-N11-SecM-GS3, and TPO-Jun-cys-N11-SecM-GS3, along with DNA mix and DNA mix2 were evaluated with 2100 Bioanalyzer (Agilent technologies). […]

[2] = test system: HGF-Erk-SRE pathway; assay: SRE luciferase reporter assay of cell-free translation products from ribosome display DNAs (Example 4); assay type: cell-based; conditions: HEK293E cells with SRE reporter; cell-free translation product at 25- to 625-fold dilution; HGF comparator; FIG. 16
Experimental: For cell-free translation, to 20 ng of each DNA, 2.5 μL of Solution I, 0.25 μL of Solution II, 0.5 μL of Solution III, and 1.75 μL of water were added, and the mixture was incubated at 37° C. for 6 hours to carry out the translation reaction.
Reporter assays were carried out as follows. To 25 μL of Opti-MEM medium (Thermo Fisher Scientific), 0.6 μL of Attractene Transfection Reagent (QIAGEN) was added and incubated at room temperature for 5 minutes. To the above mixed solution, a mixed solution of 25 μL of Opti-MEM and 1 μL of SRE reporter vector (QIAGEN) was added and incubated at room temperature for 20 minutes. This mixed solution was added to a 96-well plate, HEK293E cells were seeded thereon at 40,000 cells/well, and incubated overnight at 37° C. in a 5% CO2 incubator. After transfection, all the culture supernatant was removed, and 100 μL of Opti-MEM medium (evaluation basal medium), containing 0.5% FBS (Thermo Fisher Scientific), 1% non-essential amino acid solution (Thermo Fisher Scientific), and penicillin-streptomycin (Nacalai Tesque), was added thereto, which was cultured at 37° C. for 4 hours to starve the cells.
To the evaluation basal medium, 0 to 100 ng/mL HGF was added, or the above cell-free expression reaction solution was added at a 25- to 625-fold dilution with respect to the medium, and 100 μL of the evaluation basal medium was added to the cells. The cells were stimulated by culturing overnight at 37° C. in a 5% CO2 incubator.
Dual-Luciferase Reporter Assay System (Promega) was used for signal intensity detection. […] Activation of the HGF-Erk-SRE pathway was quantified by detecting Firefly luciferase luminescence from cell lysates with a plate reader. Subsequently, 50 μL of Glo & Stop reagent solution was added, and after 10 minutes, luminescence of Renilla luciferase, an internal standard, was detected to quantify the cell count. The signal activity of each sample was quantified as SRE activity=(luminescence intensity of Firefly luciferase)/(luminescence intensity of Renilla luciferase). […]

[3] = target: T2, Recombinant Human HGFR/c-MET Fc Chimera Protein (Homo sapiens, UniProt P08581); assay: Ribosome display enrichment on immobilized c-Met (Example 4); assay type: binding; conditions: starting DNA mix 1:50:50 (aMD4dY:TPO:EMP′ fusions); one round; FIGS. 15, 16
T2 construct: purchased R&D systems 8614-MT-100
T2 sequence (P08581 with tags, fused parts or gaps limits assumed): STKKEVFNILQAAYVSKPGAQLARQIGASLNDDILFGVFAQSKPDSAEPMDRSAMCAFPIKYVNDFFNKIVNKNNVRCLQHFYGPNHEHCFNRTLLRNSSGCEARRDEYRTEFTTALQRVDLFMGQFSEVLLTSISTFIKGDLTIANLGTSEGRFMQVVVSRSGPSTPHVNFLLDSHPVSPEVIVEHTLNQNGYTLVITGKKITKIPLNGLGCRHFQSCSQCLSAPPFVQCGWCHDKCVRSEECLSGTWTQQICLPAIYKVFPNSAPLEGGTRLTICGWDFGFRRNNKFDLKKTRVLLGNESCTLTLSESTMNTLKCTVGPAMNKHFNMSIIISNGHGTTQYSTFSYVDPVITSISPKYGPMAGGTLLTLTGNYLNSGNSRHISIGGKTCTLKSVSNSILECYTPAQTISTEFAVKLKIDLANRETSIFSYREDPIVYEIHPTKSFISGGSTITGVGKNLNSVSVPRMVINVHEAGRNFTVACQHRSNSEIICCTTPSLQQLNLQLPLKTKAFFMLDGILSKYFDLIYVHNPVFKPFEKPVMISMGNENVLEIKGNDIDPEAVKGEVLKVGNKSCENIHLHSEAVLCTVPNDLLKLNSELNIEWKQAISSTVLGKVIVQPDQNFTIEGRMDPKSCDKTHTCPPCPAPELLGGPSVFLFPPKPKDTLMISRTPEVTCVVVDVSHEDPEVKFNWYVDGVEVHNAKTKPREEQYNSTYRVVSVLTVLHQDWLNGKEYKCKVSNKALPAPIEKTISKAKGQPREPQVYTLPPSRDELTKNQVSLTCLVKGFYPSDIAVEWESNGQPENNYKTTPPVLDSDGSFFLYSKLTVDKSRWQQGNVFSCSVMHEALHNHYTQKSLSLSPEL
T2 sequence (P08581 25-307 limits assumed, change not shown): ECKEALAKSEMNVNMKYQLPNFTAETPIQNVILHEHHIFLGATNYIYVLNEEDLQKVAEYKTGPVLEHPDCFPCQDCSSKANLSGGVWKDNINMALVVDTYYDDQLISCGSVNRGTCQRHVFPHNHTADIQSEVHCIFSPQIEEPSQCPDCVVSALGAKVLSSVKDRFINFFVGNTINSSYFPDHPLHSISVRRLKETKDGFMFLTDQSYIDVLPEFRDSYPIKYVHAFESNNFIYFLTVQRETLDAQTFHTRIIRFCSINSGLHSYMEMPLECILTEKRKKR
Experimental: as §1, with “E6000)” for “E6000) as well”
PURExpress ΔRF1,2,3 kit was used for translation expression of the prepared library. 2 μL of solution A, 1.5 μL of solution B, 1 μL of mRNA mix, and 0.5 μL of ultrapure water were mixed and cultured in a 37° C. constant temperature bath for 2 hours. After the reaction, the reaction vessel was placed on ice, and 20 μL of ice-cold 1×TBSM-T buffer (50 mM Tris-HCl, 150 mM NaCl, 50 mM MgCl2, 0.05% Tween 20) was added to the formed ribosome-cyclic peptide-leucine zipper fusion-mRNA complex. This complex reaction solution was used in (4-7) below.
Immobilization of target molecules to magnetic beads was carried out. […]

Molecule | enrichment in DNA mix2 after ribosome display against EPO receptor [1] | relative SRE reporter activity (relative receptor activity) [2] | enrichment in DNA mix2 after ribosome display against c-Met [3]
B1 | enriched |  | 
B2 |  | showed activity | enriched
